This is an account of results in publication PMC5724930 (Biochemistry, 2017).

The data set concerns the molecule itself. Briefly: SEC; mixtures of the purified proteins; details in the Supporting Information. A general note: In gel filtration, larger molecules generally elute earlier.

B1: PanD(K119A) (enzyme, E. coli, UniProt P0A790 1-126, looked up)
chain: MIRTMLQGKLHRVKVTHADLHYEGSCAIDQDFLDAAGILENEAIDIWNVTNGKRFSTYAIAAERGSRIISVNGAAAHCASVGDIVIIASFVTMPDEEARTWRPNVAYFEGDNEMKRTAAAIPVQVA
As a reminder, the stoichiometry N is the number of molecules, sites or subunits per partner or assembly. In the case of B1, the “stoichiometry N” value turned out to be 4.

B2: aspartate α-decarboxylase (PanD), wild type (from pET28apanD, for SEC) (enzyme, E. coli, UniProt P0A790 1-126, looked up)
chain: MIRTMLQGKLHRVKVTHADLHYEGSCAIDQDFLDAAGILENEAIDIWNVTNGKRFSTYAIAAERGSRIISVNGAAAHCASVGDIVIIASFVTMPDEEARTWRPNVAYFEGDNEMKRTAKAIPVQVA
B2: the “stoichiometry N” value worked out at 4.
